In patent US12570711B2, “Platforms for co-stimulation, novel car designs and other enhancements for adoptive cellular therapy” (Angeles Therapeutics, Inc., priority 2017, dated 2026):

Experiments:
[1] = tested on: NF-κB; assay: NF-κB-Luciferase reporter assay in transfected 293FT cells (normalized to RSV-LacZ); assay type: cell-based; details: NF-κB-Luciferase plus RSV-LacZ reporter
Experimental: The different constructs were transfected in 293FT cells along with an NF-κB-Luciferase reporeter construct and a RSV-LacZ (normalization control) reporter construct and tested for their ability to activate NF-κB using assay described previously.
The constructs were transfected into 293FT cells along with an NF-κB-Luciferase reporeter construct and a RSV-LacZ reporter construct. Approximately 8 hours, post-transfection, cells were left untreated or treated with AP20187 (100 nM). After approximately 72 hours, cell lysates were prepared and analyzed for NF-κB luciferase and LacZ activities as described previously. NF-κB-Luc activity was normalized for LacZ activity to control for difference in transfection efficiency.

[2] = tested on: EG7.OVA tumor cells; assay: EG7.OVA tumor therapy in C57BL/6 mice; assay type: in vivo, mouse; details: transduced DC injection or direct lentivector injection after lethal dose of EG7.OVA
Experimental: Tumor therapy. EG7.OVA tumor cells are grown in RPMI plus 0.4 mg/ml G418 (Invitrogen). C57BL/6 mice are challenged with 2×10^6 tumor cells injected s.c. into the flank and then vaccinated.
Mice are inoculated with a lethal dose of EG7.OVA tumor cells before vaccinating them either with transduced DCs or with the human NEMO-K277A-, human NEMO-K277A-deltaV249-K255-, mouse NEMO-K270A- and IKK2-S177E-S181E-vectors directly. All mice are shown to develop tumors.

[3] = tested on: bone marrow derived dendritic cells (DC); assay: Bone marrow derived dendritic cells expressing selective NF-κB activators: cytokine production, antigen presentation, immune response; assay type: cell-based; details: compared to control DC
Description: The disclosure further provides that expression of a selective NF-κB activator can be used to improve the cytokine secretion, antigen presentation and immune response generated by antigen presenting cells, including dendritic cells. The disclosure further provides a method of improving the efficacy of vaccine, including cancer vaccines, by expression of a selective NF-κB activator in the antigen presenting cells ex vivo or in vivo. In one embodiment, the use of selective NF-κB activators increase cytokine production (e.g., TNFα) by antigen presenting cells (e.g., dendritic cells) by more than at least 15%.

[4] = tested on: BM-derived DCs; assay: Maturation markers on transduced bone marrow-derived dendritic cells by flow cytometry; assay type: cell-based, mouse; details: for maturation markers CD86, CD40, ICAM-1 and CD80 on DCs: compared to transduced DCs in the control vector group; for retention of CD86 on transduced DCs: culture
Experimental: Transduction of DCs and flow cytometry. Murine bone marrow-derived Dendritic cells (DCs) are prepared as previously described. Immature DCs are transduced on day 4 at an MOT of 20 with lentiviral vectors as described (Rowe H M et al, Molecular Therapy, 13, 2, 2006) and fed every 4 days with fresh medium containing granulocyte-macrophage colony-stimulating factor (50 ng/ml; from Peprotech). On day 5 posttransduction, DCs are harvested, washed, and blocked for Fc receptors before surface staining for maturation markers with the following biotin-conjugated Abs: anti-CD11c, anti-CD86, and anti-I-Ab (MHC class II) (all from BD Pharmingen); anti-CD40 (from Serotec); and anti-CD80, anti-ICAM-1, and anti-Kb (MHC class I) (all from eBioscience). A hamster isotype control Ab (biotin conjugated) is purchased from BD Pharmingen. Abs are then labeled with streptavidin RPE Cy-5 2o reagent (DakoCytomation) before flow cytometry. Lipopolysaccharide (LPS) (50 ng/ml) (Sigma) is added to untransduced DCs and left overnight as a positive control for maturation. Zymosan A (10 μg/ml) treatment (for 30 min at 37° C.) is used as a control for ERK activation.

[5] = tested on: lymph node DCs; assay: Lymph node dendritic cells after subcutaneous lentivector injection; assay type: in vivo, mouse; details: s.c. lentivector injection; compared to control vector-injected animals
Experimental: DC purification from lymph nodes. C57/BL6 mice (Harlan) are injected subcutaneously (s.c.) at the base of the tail with 1×10^8 infectious units (i.u.) lentivector. Six days later, lymph nodes (para-aortical and inguinal) are harvested (cells from mice in each group were pooled), incubated with collagenase CLS-4 (Worthington), and mashed to obtain single-cell suspensions. Fc receptors are blocked before CD11c-positive cells are selected using MACS beads (Miltenyi Biotec).
Following s.c. lentivector injection, transduced DCs are detected in the draining lymph nodes.

| Molecule | activation of NF-κB [1] | number of tumor-free mice [2] | cytokine production, antigen presentation and immune response of DC [3] | maturation markers CD86, CD40, ICAM-1 and CD80 on DCs [4] | retention of CD86 on transduced DCs [4] | CD86 on lymph node DCs [5] |
| --- | --- | --- | --- | --- | --- | --- |
| hNEMO-K277I: hNEMO mutant in which Lys (K) at residue 277 is replaced by I | weak activation |  |  |  |  |  |
| hNEMO-K277L: hNEMO mutant K277L | NF-κB activation |  |  |  |  |  |
| hNEMO-K277G: hNEMO mutant in which Lys (K) at residue 277 is replaced by G | weak activation |  |  |  |  |  |
| hNEMO-K277A: human NEMO mutant K277A, constitutively active selective NF-κB activator used as accessory module | strong activation | higher than that in the control group | superior cytokine production, antigen presentation, and immune response | upregulated | retain their upregulated CD86 for several weeks in culture | upregulation of CD86 |
| K13-opt: vFLIP K13 encoded by human codon optimized nucleic acid sequence |  |  | superior cytokine production, antigen presentation, and immune response |  |  |  |
| mNEMO-K270A: mouse NEMO-K270A mutant, known to activate NF-κB constitutively (protein) MNKHPWKNQLSETVQPSGGPAEDQDMLGEESSLGKPAMLHLPSEQGTPETLQRCLEENQELRDAIRQSNQMLRERCEELLHFQVSQREEKEFLMCKFQEARKLVERLSLEKLDLRSQREQALKELEQLKKCQQQMAEDKASVKAQVTSLLGELQESQSRLEAATKDRQALEGRIRAVSEQVRQLESEREVLQQQHSVQVDQLRMQNQSVEAALRMERQAASEEKRKLAQLQAAYHQLFQDYDSHIKSSKGMQLEDLRQQLQQAEEALVAAQELIDKLKEEAEQHKIVMETVPVLKAQADIYKADFQAERHAREKLVEKKEYLQEQLEQLQREFNKLKVGCHESARIEDMRKRHVETPQPPLLPAPAHHSFHLALSNQRRSPPEEPPDFCCPKCQYQAPDMDTLQIHVMECIE | strong activation | higher than that in the control group | superior cytokine production, antigen presentation, and immune response | upregulated | retain their upregulated CD86 for several weeks in culture | upregulation of CD86 |
| hNEMO-K277A-DeltaV249-K255: mutant lacking aminoacid residues V249-K255 of human NEMO and carrying the K277A mutation (protein) MNRHLWKSQLCEMVQPSGGPAADQDVLGEESPLGKPAMLHLPSEQGAPETLQRCLEENQELRDAIRQSNQILRERCEELLHFQASQREEKEFLMCKFQEARKLVERLGLEKLDLKRQKEQALREVEHLKRCQQQMAEDKASVKAQVTSLLGELQESQSRLEAATKECQALEGRARAASEQARQLESEREALQQQHSVQVDQLRMQGQSVEAALRMERQAASEEKRKLAQLQVAYHQLFQEYDNHIKSSRGMQLEDLKQQLQQAEEALVAAQEVIDKLKEEAEQHKIVMETVPVLKAQADIYKADFQAERQAREKLAEKKELLQEQLEQLQREYSKLKASCQESARIEDMRKRHVEVSQAPLPPAPAYLSSPLALPSQRRSPPEEPPDFCCPKCQYQAPDMDTLQIHVMECIE | NF-κB activation | higher than that in the control group | superior cytokine production, antigen presentation, and immune response | upregulated | retain their upregulated CD86 for several weeks in culture | upregulation of CD86 |
| IKK1-S176E-S180E: constitutive active mutant of IKKa/IKK1 (protein) MERPPGLRPGAGGPWEMRERLGTGGFGNVCLYQHRELDLKIAIKSCRLELSTKNRERWCHEIQIMKKLNHANVVKACDVPEELNILIHDVPLLAMEYCSGGDLRKLLNKPENCCGLKESQILSLLSDIGSGIRYLHENKIIHRDLKPENIVLQDVGGKIIHKIIDLGYAKDVDQGELCTEFVGTLQYLAPELFENKPYTATVDYWSFGTMVFECIAGYRPFLHHLQPFTWHEKIKKKDPKCIFACEEMSGEVRFSSHLPQPNSLCSLIVEPMENWLQLMLNWDPQQRGGPVDLTLKQPRCFVLMDHILNLKIVHILNMTSAKIISFLLPPDESLHSLQSRIERETGINTGSQELLSETGISLDPRKPASQCVLDGVRGCDSYMVYLFDKSKTVYEGPFASRSLSDCVNYIVQDSKIQLPIIQLRKVWAEAVHYVSGLKEDYSRLFQGQRAAMLSLLRYNANLTKMKNTLISASQQLKAKLEFFHKSIQLDLERYSEQMTYGISSEKMLKAWKEMEEKAIHYAEVGVIGYLEDQIMSLHAEIMGLQKSPYGRRQGDLMESLEQRAIDLYKQLKHRPSDHSYSDSTEMVKIIVHTVQSQDRVLKELFGHLSKLLGCKQKIIDLLPKVEVALSNIKEADNTVMFMQGKRQKEIWHLLKIACTQSSARSLVGSSLEGAVTPQTSAWLPPTSAEHDHSLSCVVTPQDGETSAQMIEENLNCLGHLSTIIHEANEEQGNSMMNLDWSWLTE |  |  | superior cytokine production, antigen presentation, and immune response |  |  |  |
| IKK2-S177E-S181E: constitutive active mutant of IKKβ/IKK2 (protein) MSWSPSLTTQTCGAWEMKERLGTGGFGNVIRWHNQETGEQIAIKQCRQELSPRNRERWCLEIQIMRRLTHPNVVAARDVPEGMQNLAPNDLPLLAMEYCQGGDLRKYLNQFENCCGLREGAILTLLSDIASALRYLHENRIIHRDLKPENIVLQQGEQRLIHKIIDLGYAKELDQGELCTEFVGTLQYLAPELLEQQKYTVTVDYWSFGTLAFECITGFRPFLPNWQPVQWHSKVRQKSEVDIVVSEDLNGTVKFSSSLPYPNNLNSVLAERLEKWLQLMLMWHPRQRGTDPTYGPNGCFKALDDILNLKLVHILNMVTGTIHTYPVTEDESLQSLKARIQQDTGIPEEDQELLQEAGLALIPDKPATQCISDGKLNEGHTLDMDLVFLFDNSKITYETQISPRPQPESVSCILQEPKRNLAFFQLRKVWGQVWHSIQTLKEDCNRLQQGQRAAMMNLLRNNSCLSKMKNSMASMSQQLKAKLDFFKTSIQIDLEKYSEQTEFGITSDKLLLAWREMEQAVELCGRENEVKLLVERMMALQTDIVDLQRSPMGRKQGGTLDDLEEQARELYRRLREKPRDQRTEGDSQEMVRLLLQAIQSFEKKVRVIYTQLSKTVVCKQKALELLPKVEEVVSLMNEDEKTVVRLQEKRQKELWNLLKIACSKVRGPVSGSPDSMNASRLSQPGQLMSQPSTASNSLPEPAKKSEELVAEAHNLCTLLENAIQDTVREQDQSFTALDWSWLQTEEEEHSCLEQAS |  | higher than that in the control group | superior cytokine production, antigen presentation, and immune response | upregulated | retain their upregulated CD86 for several weeks in culture | upregulation of CD86 |
